{"source": "patent US20220380473A1", "about": "“ANTI-GAL3 ANTIBODIES AND USES THEREOF” (TrueBinding, Inc., priority 2019, published 2022)", "molecules": {"B1": {"name": "IMT001: anti-Gal3 monoclonal antibody (Immutics); printed as mIMT001 (IMT001), murine (antibody, V domains shown)", "VH": "QIQLVQSGPELKKPGETVKISCKASGYTFTNYGMNWVKQAPGKGLKWMGWINTNTGEPTYVEEFKGRFAFSLETSASTAYLQINNLKNEDTATYFCAPYDNFFAYWGQGTLVTVSA", "VL": "DIVITQDELSNPVTSGESVSISCRSSKSLLYKDGKTYLNWFLQRPGQSPQLLIYLMSTHASGVSDRFSGSGSGTDFTLEISRVKAEDVGVYYCQQLVDYPLTFGAGTKLELK"}}, "key": {"[1]": {"system": "RAW macrophages/DO11.10 T cell mixed reaction", "test": "Mixed Lymphocyte Reaction, RAW macrophages/DO11.10 T cells, IL-2", "type": "cell-based, mouse", "details": "10 μg/ml, overnight, vs mIgG", "method": "RAW mouse macrophage cells were mixed with […] mouse T cells at 1:1 ratio, treated with OVA peptide, and cultured in the presence of mIgG (BD Biosciences), anti mPD1 antibody 29F (BioXCell) or IMT001 at 10 μg/ml for overnight 37° C. 50 μl of the culture medium was taken for mIL-2 measurement. The mIL-2 production was measured according to the commercial kit mouse IL-2 Elisa Ready-SET-Go from eBioscience."}, "[2]": {"system": "Human peripheral blood mononuclear cells (PBMCs)", "test": "CMV antigen recall assay, IFN gamma", "type": "cell-based", "details": "10 ug/ml final, CMV 4 days, vs isotype control", "method": "To assess the ability of Gal3-targeted antibodies with Gal3-TIM-3 blocking activity to enhance T-cell mediated responses, a CMV antigen recall assay was used. Human peripheral blood mononuclear cells (PBMCs) (Astarte, donor ID 230) were quickly thawed in 37 C water bath, resuspended in 20 ml of RPMI media with 10% FBS, and centrifuged at 1500 RPM for 5 min. Media was discarded pellet resuspended in 20 ml media and counted by […], and diluted to a final concentration of 4 million/ml in Serum free Media (Lonza). 50 ul of media plus cells (200,000 cells/well) were added to 60 inner wells of a 96 well round bottom plate, and incubated at 37 C for 30 min. Antibodies were added to serum free media to a stock concentration of 4× the final concentration (40 ug/ml). 50 ul of antibodies at 4× concentration were added directly to the PBMCS and incubated at 37 C for 30 min. After PBMCs were incubated with antibodies for 30 min, 100 ul of CMV (Astarte Biologics, Cat. #1004) at 2× concentration (1 ug/ml) directly to the cells and incubated for 4 days at 37 C. On Day 4, 10 ul of cell supernatant were collected to measure human IFN gamma concentration by ELISA via a human IFN-gamma ELISA kit (Invitrogen)."}, "[3]": {"target": "T1, interaction of Gal3 and TIM-3 (Homo sapiens, UniProt P17931)", "T1 construct": "full-length human Galectin-3 protein (Acro Biosystems, GA3-H5129); linker-spaced 6-histidine tag; purchased Acro Biosystems GA3-H5129 (Gal3); TM3-H5229 (TIM-3)", "T1 sequence (P17931 2-250 limits assumed)": "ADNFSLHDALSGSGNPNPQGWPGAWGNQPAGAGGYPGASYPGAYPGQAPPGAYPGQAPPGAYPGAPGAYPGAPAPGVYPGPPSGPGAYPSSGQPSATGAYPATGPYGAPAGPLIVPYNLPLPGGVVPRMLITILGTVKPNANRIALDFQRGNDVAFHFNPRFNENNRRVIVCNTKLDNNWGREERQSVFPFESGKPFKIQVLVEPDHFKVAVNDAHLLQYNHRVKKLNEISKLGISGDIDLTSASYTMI", "test": "Gal3-TIM-3 interaction blockade ELISA (Example 13)", "type": "binding", "details": "antibody at 20 ug/ml", "method": "To identify Gal3-targeted antibodies with the ability to block the interaction of Gal3 and TIM-3, purified Gal3 and TIM-3 proteins were incubated in the presence (or absence) of various Gal3-targeted or control antibodies, or without antibody, and protein interaction was evaluated by ELISA.\nHuman Gal3 protein (Acro Biosystems, GA3-H5129) was diluted in phosphate buffered saline (PBS) (Corning) to a concentration of 0.5 μg/ml and 100 ul of the diluted hGal3 was added to each well of a 96-well ELISA plate (Thermo Fisher, 44-2404-21). After incubating the plate at 4° C. overnight, the plate was washed three times with 300 μl of PBS with 0.05% TWEEN (VWR) (PBST) per well. The plate was then blocked for an hour with 200 μl of 2% bovine serum albumin (BSA) (Sigma) in PBST per well at room temperature with gentle rocking. […]\nAfterwards, 50 ul of 1 ug/ml of human TIM-3 extracellular domain protein (Acro Biosystems, TM3-H5229) in 2% BSA in PBST was added to the wells. […] The plate was read using a plate reader (Molecular Devices) at absorbance of 450 nm. Percent blockade of Gal3-TIM-3 interaction was calculated as the fraction of signal obtained in the absence of antibody with the background signal subtracted."}, "[4]": {"system": "hGal3 peptide", "test": "Gal3 peptide library ELISA (Example 25)", "type": "binding, human", "details": "peptide array ELISA", "method": "To identify the epitopes to which Gal3 antibodies with and without Gal3-TIM3 blocking activity bound, a library of 20 amino acid peptides representing portions of Gal3, summarized in Table 24.1, was produced and the ability to bind Gal3 antibodies was evaluated by ELISA.\nAt least 2 μg/ml of hGal3 peptide in 50 μl of PBS or 0.1 μg/ml of full-length human Gal3 protein (GenScript) and human Galectin-3 protein (Acro Biosystems, GA3-H5129) were diluted in PBS (Corning, 21-030-CM) to concentrations of at least 2 μg/ml or 0.1 μg/ml, respectively, and added to the wells of a 96-well ELISA plate (Thermo Fisher, 44-2404-21). After incubating the plate at 4° C. overnight, the plate was washed three times with PBST (PBS with 0.05% Tween 20 [VWR, 0777]). The plate was then blocked for an hour with 2% BSA (EMD Millipore, 126609) in PBST at room temperature with gentle rocking. Thereafter, the 2% BSA in PBST was discarded and human Galectin-3 hybridoma supernatants or antibodies were diluted in 2% BSA in PBST to concentrations of at least 0.1 μg/ml and added to the wells. The plate was incubated for an hour at room temperature with gentle rocking and then washed three times with PBST. Afterwards, Goat Anti-Mouse IgG-HRP (Jackson ImmunoResearch, 115-036-1461) or Goat Anti-Rat IgG HRP (abcam, ab205720) diluted in 2% BSA in PBST (1:4000) were added to the wells. The plate was incubated for 30 minutes to 1 hour at room temperature with gentle rocking and then washed three times with PB ST. TMB substrate (Thermo Scientific, 34029) was then added to each well. The reaction was stopped with 1M HCl (JT Baker, 5620-02) and read using a plate reader (Molecular Devices) at absorbance of 450 nm."}}, "data": [{"molecule": "B1", "values": [{"measurement": "production of IL-2", "setting": "[1]", "value": "enhanced the production of IL-2"}, {"measurement": "interferon-gamma secretion", "setting": "[2]", "value": "significantly increased levels"}, {"measurement": "Gal3-TIM-3 binding, % of unblocked control (no antibody)", "setting": "[3]", "value": 7, "unit": "%"}, {"measurement": "Gal3 peptide bound", "setting": "[4]", "value": "peptide 6"}]}]}
